Data: PMC10021056 (Nature Communications, 2023)

Key:
[1] = molecular target: prefusion-stabilized NiV F (NiVop08) (Nipah virus, Malaysian strain, stabilised)
[2] = molecular target: prefusion-stabilized Nipah virus fusion (F) glycoprotein, construct NiVF_prefusion (Nipah virus, Malaysian strain, stabilised)
[3] = molecular target: postfusion Nipah virus fusion (F) glycoprotein, construct NiVF_postfusion (Nipah virus, Malaysian strain, stabilised)

B1: 201805_NiV_PL3_D4 (antibody, V domains shown)
VH: EVQLQQSGPELVKPGASVKMSCKASGYTFTSNVMHWVKQKPGQGLEWIGYINPYNDGTRYNEKFKGKATLTSDKSSSTAYMELSSLTSEDSAVYYCARRFYRGAMDYWGQGTSVTVSA
VL: NIVLHQSPASLAVSLGQRATISCRASESVDTYDNSFMHWYQQKPGQPPKLLIYLASKLESGVPARFSGSGSRTDFTLTIDPVEADDAATYYCQQNYEDPYTFGGGTKLEIK
- binding result [1]: binds

B2: 201805_NiV_P1_G1 (antibody, V domains shown)
VH: QVQLQQSGAELAKPGASVKLSCKATGYTFTGSWIEWVKLRPGHGLEWFGEIFPGTGSVKHNEKFRGKAIITAETSSNTAYMKLSSLTTEDSAIYFCSRSNTNYEFFDVWGTGTTVTVSS
VL: EILLTQSPAIISASPGERVTFTCSASSGVNYMNWYQQKPGSSPKIWIYGVSNLASGVPARFSGSGSGTSFSFTITNLEAEDVATYYCQQRSTFPLTFGAGTKLEIK
- binding result [2]: binds
- binding result [3]: binds

B3: 201805_NiV_PL4_C7 (antibody, V domains shown)
VH: FEESGGLVQPGGSMKISCVASGFTFSNYWMNWVRQSPEKGLEWIAQIRLKSDNYATHYAESVKGRFTISRDDSKSSVYLQMNNLRAEDSGIYYCTGILDYWGQGTSVTVSQ
VL: YIQMTQSPSSMSVSLGDTVSITCHASQGISSNIGWLQQKPGKSFKVLIYHGTNLEDGVPSRFSGSGSGADYSLTISSLESEDFADYYCVQYAQFPYTFGGGPNDKT
- binding result [2]: binds

B4: 201805_NiV_PL3_G2 (antibody, V domains shown)
VH: QIQLVQSGPELKKPGETVKISCTTSGFIFRNYGVNWVKRAPGKGLKWMGWIDAYTGEPAYADDFKGRFAFSLEMSANTAYLQITNLKNEDMATYFCARQGWGEAMDYWGQGTSVTVSS
VL: DVLMTQSPLSLPVSSGDQASISCRSSQTFVHSNGNTYLEWYLQKPGQSPKLLIYKVSNRFSGVPDRFIGSGSGTDFTLKISRVEADDLGVYYCFQGSHVPWAFGGGTKLEIK
- binding result [2]: binds
- binding result [3]: binds

B5: 201805_NiV_PL3_G11 (antibody, V domains shown)
VH: QVQLQQSGAELVKPGASVKLSCKASGYIFTNYDINWVRQRPEQGLEWIGWIFPGDVSTNYNEKFKGKATLTTDKSSSTAYMQLSRLTSEDSAVYFCARRSFQAMDYWGQGTSVTVSA
VL: DVLMTQTPLSLPVSLGDQASISCRSSQSIVHSNGNTYLEWYLQKPGQSPKLLIYKVSNRFSGVPDRFSGSGSGTDFTLKISRVEAEDLGVYYCFQGSHVPWTFGGGTKLEIK
- binding result [2]: binds
- binding result [3]: binds

B6: 201805_NiV_PL3_E1 (antibody, V domains shown)
VH: RFRLQQSGAELVKPGASVKLSCRASGYIFTSYWMHWVKQRPGQGLEWIGMIHPNSGSPNYNEKFKSKATLTVDNSSSTAYMQLSSLTSEDSAVYYCARTLLGQGAWFAYWGQGTLVTLAA
VL: YIQMTLSPATLSVTPGDRVSLSCRASQSISDFLHWYQQKSHESPRLLIKYASQSISGIPSRFSGSGSGSDFTLSINSVEPEDVGVYYCQNGHSFPYTFGGGTKLKT
- binding result [2]: binds
- binding result [3]: binds

B7: 201805_NiV_PL4_E1 (antibody, V domains shown)
VH: EVQLEESGGGLVPGGSLKLSCAASGFTFSDYYMYWVRQTPEKRLEWVATISDGGSYTYYPDSVKGRFTISRDNAKNNLYLQMSSLKSEDTAMYYCAREKPDRGHYYAMDYWGQGTSVTVLQ
VL: IQMTQSSSSFSVSLGDRVTITCKASEDIYNRLAWYQQKPGNAPRLLISGATSLETGVPSRFSGSGSGKDYTLSITSLQTEDVATYYCQQYWSTPYTFGGGTKLKN
- binding result [2]: binds

B8: 201805_NiV_PL3_C3 (antibody, V domains shown)
V domain 1: RFKLQQSGPELVKPGASMKISCKASGYSFTGYTMNWVKQSHGKNLEWIGLINPYIGGTSYNQKFKGKATLTVDKSSSTAYMELLSLTSEDSAVYYCARGGVYYGSNYDFDYWGQGTTLTSLS
V domain 2: DIQMTQTTSSLSASLGDRVTISCSASQGISNYLNWYQQKPDGTVKLLIYYTSSLHSGVPSRFSGSGSGTDYSLTISNLEPEDIATYYCQQYSKLPRTFGGGTKLKSN
- binding result [1]: binds

B9: 201805_NiV_P1_A6 (antibody, V domains shown)
VH: LCLLTSSRSGLVRPGASVKLSCKASGYSFTSYWMNWVKQRPGHGLEWIGMIHPSDSETRLNQRFKDKATLTVDKSSSTAYMQLSSPTSEDSAVYYCAREDFYAMDYWGQGTSVTFSA
VL: DIVMSQSPSSLAVSVGEKITMSCKSSQSLLYSSNKKKYLAWYQQKPGQSPKLLIYWASTRESGVPDRFTGSGSGTDFTLTISSVKAEDLAVYYCQQYYSYPYTFGGGPSNKR
- binding result [2]: binds
- binding result [3]: binds

B10: 201805_NiV_PL3_H3 (antibody, V domains shown)
V domain 1: EVQLEESGGGLVPGGSLKLSCAASGFTFISYAMSWIRQTPEKRLEWVATITSGGSYTYYPDSVMGRFTISRDNAKNTLHLQMSSLRSEDTAIYYCARGGYGSISPYYFDYWGQGTTLTSSA
V domain 2: DIQMTQSSSSFSVSLGDRVTITCKAGEDIYNRLAWYQQKPGNAPRLLISGAISLETGVPSRFSGSGSGKDYTLSITSLQTEDVATYYCQQYWTNPWTFGGGTKLKSN
- binding result [2]: binds
- binding result [3]: binds

B11: 201805_NiV_PL3_H11 (antibody, V domains shown)
VH: EVQLQQSGPELVKPGTSVKISCKASDYSFTGYFMNWVKQSHGKSLEWIGRINPYNGDTFYNQKFKGKATLTVDKSSSTAHMELLSLTSEDSAVYYCAAFDVYYPAWFAYWGQGTTVTVSS
VL: DIQMTQSSSSFSVSLGDRVTFTCKASEDIYNRLAWYQQKPGNAPRLLISGATSLETGVPSRFSGSGSGKDYTLTITSLQTEDVATYYCQQYWSIPWTFGGGTKLEIK
- binding result [1]: binds

B12: 201805_NiV_PL3_A4 (antibody, V domains shown)
VH: QVQLQQSGTELVKPGASVKLSCKASGYTFTSYWMHWVKQRPGQGLEWIGNINPSNGYTNNNEKFKSKATLTVDKSSSTAYMQLSSLTSEDSAVYYCARGGIYYYGSSLYYYTMDYWGQGTSVTVSS
VL: DIQMTQSSSSFSVSLGDRVTITCKASEDIYNRLAWYQQKPGNAPRLLISDATSLETGVPSRFSGSGSGKDYTLSITSLQTEDVATYYCHQYWSTPWTFGGGTKLEIK
- binding result [2]: binds

B13: 201805_NiV_P2_D4 (antibody, V domains shown)
VH: EVQLQQSGAELVKPGASVKMSCKASGYTFTDYSIHWVKQKSGQGLEWIGWFYPGSGSIKNSDKVKDEAILTADKSSSTVYLELSSLTSEDSAVYFCARHGGGYDYGRAWFVYWGQGTLVTLEQ
VL: FTQMTQSPKFLLVSAGDRVTITCKASQSVSNDVAWYQQKPGQSPKLLIYYASNRYTGVPDRFTGSGYGTDFTFTISTVQAEDLAVYFCQQDYGSPYTFGGGTKLKN
- binding result [2]: binds

B14: 201805_NiV_PL4_C5 (antibody, V domains shown)
VH: EVQLQQSGPELVKPGASMKISCKASGYSFTGYTMNWVKQSHGKNLEWIGLINPYIGGTSYNQKFKGKATLTVDKSSSTAYMELLSLTSEDSAVYYCARLLGREGYYFDYWGQGTTLTSLS
VL: DIQMTQTTSSLSASLGDRVTISCRASQDISNYLNWYQQKPDGTVKLLIYYTSRLHSGVPSRFSGSGSGTDYSLTISNLEQEDIATYFCQQGTTLPFTFGSGTKWKN
- binding result [1]: binds

B15: 201805_NiV_PL4_D5 (antibody, V domains shown)
VH: QIQLVQSGPELKKPGETVKISCKASGFTFTNYGINWVKQAPGKGLKWMGWTDTFTGEPTYADDFKGRFAFSLETSASTAYLQINNLKNEDMATYFCARQGWGEAMDYWGQGTSVTVSA
VL: DVLDEQFHFLPVSLGDQASISCRSSQSIVHSNGNTYLEWYLQKPGQSPKLLIYKVSNRFSGVPDRFSGSGSGTDFTLKISRVEAEDLGVYYCFQGSHVPWTFGGGTKLEIK
- binding result [2]: binds
- binding result [3]: binds

B16: 201805_NiV_PL4_D8 (antibody, V domains shown)
VH: EVQLQQSGPELVKPGASVKISCQASGYTFTDSNMNWVRQTHGKSLEWIGDVNPNNGGTSYNQRFKGKATLTVDKSSSTAYMEFRSLTSEDSAVYFCSRRALITTVVADYYGLDYWGQGTSVTVSA
VL: SIVMTQSPKFLLVSAGDRVTMTCKASQSVNSDVVWFQQKPGQSPKLLIYYASIRYTGVPDRFTGSGYGTDFTFTISPVQAEDLAVYFCQQDYSSPYTFGGGTKLEIK
- binding result [1]: binds

B17: 201805_NiV_P1_H5 (antibody, V domains shown)
VH: EFQLQQSGPEVVKPGASVRISCKTSGYSFTDYNMNWVRQNNGRSLEWIGVINPNYGTFTYNQKFRGKATLTVDQSSSTAYMQLNSLTSADSAVYFCARAPDYYGINFYFDYWGQGTTLTVSA
VL: DVVMTQTPLSLPVSLGDQASISCRSSQSLVHSNGDTYLHWYLQKPGQSPKLLIYKVSNRFSGVPDRFSGSGSGTDFTLKISRVEAEDLGVYFCSQSTHVPPWTFGGGTKLEIK
- binding result [1]: binds

B18: 201805_NiV_PL4_F4 (antibody, V domains shown)
VH: EFQLQQSGPEVVKPGASVKISCKTSGYSFTDYNMNWVKQSNGKSLEWIGVINPNYGTTTYNQKFRGKATLTVDQSSSTAYMQLNSLTSEDSAVYYCARAPDYYGINFYFDYWGQGTTLTVSA
VL: DVVMTQSPLSLPVSLGDQASISCRSSQSLVHSNGDTYLHWYLQKPGQSPKLLIYKVSNRFSGVPDRFSGSGSGTDFTLKISRVEAEDLGVYFCSQSTHVPPWTFGGGTKLEIK
- binding result [1]: binds

B19: 201805_NiV_PL3_H6 (antibody, V domains shown)
VH: EVQLEESGGGLVKPGGSLKLSCTASGFAFSTYDMSWVRQTPEKRLEWVAYISSGGGSTYYPDSVKGRFTISRDNARNTLYLQMSSLKSDDTAMYYCVRDDGYYGGAWFAYWGQGTLVTVSA
VL: DIQMTQTTSSLSASLGDRVTISCRASQDIRNYLNWYQQKPDGTVKLLIYYTSRFHSGVPSRFSGSGSGTDYSLTINNLEQEDITTYFCQQGYILPWTFGGGTKLEIK
- binding result [2]: binds
- binding result [3]: binds

B20: 201805_NiV_PL4_E11 (antibody, V domains shown)
VH: QVQLQQSGAELVKPGASVKLSCKASGYTFTNYDINWVRQRPEQGLEWIGWIFPGDGTTSYNEKFKDKATLTTDKSSSTAYMQLSRLTSEDSTVYFCARLGWGGAMDYWGQGTSVTVSA
VL: YTLMTQSPLSLPVSLGDQASISCRSSQSIVHSNGNTYLQWYLQKPGQSPKLLIYKVSNRFSGVPDRFSGSGSGTDFTLKISRVEAEDLGVYYCFQGSHVPYTFGGGPSNKR
- binding result [2]: binds
- binding result [3]: binds

B21: 201805_NiV_P2_F7 (antibody, V domains shown)
VH: QVQLQQSGAELVKPGASVKMSCKASGYTFTNYWIHWVKQRPGQGLEWIGEIDPSNGNSDHNQDFKVKATLTVDTFSSTAYMQLNSLTSEDSAVYYCARSRYYFDYWGQGTTLTVSA
VL: QIVLPQSPAIMSASPGEKVTLTCSARSSVSSGYLYWYQQKPGSSPKLWIYSTSNLASGVPTRFSGSGSGTSYSLTISSMEAEDAASYFCHQWSSYPPTFGGGTKLEIK
- binding result [2]: binds
- binding result [3]: binds
